In patent US8148141:
Ends that are not written are not given here. carboxyfluorescein = carboxyfluorescein (fluorescent group)

Target: amylase
Test: fluorescence of immobilized carboxyfluorescein-labeled peptide on chip, ex 490 nm / em 520 nm, 1.0 uM amylase, 25 C, 5 min

An increase of the fluorescence intensity (fold) of 10 times was found for K(carboxyfluorescein)YQSWRYSQAC-NH2 [Lys(Rf)-Tyr-Gln-Ser-Trp-Arg-Tyr-Ser-Gln-Ala-Cys-NH2] in this work.
